Here are results for one substance from paper PMC9076861.

This assay concerns the target human insulin receptor overexpressed on Rat-1 cells (Rat-1/hIR) (human) (UniProt P06213).

Substance insulin from bovine pancreas (ligand) had an EC50 of IR Y1150 phosphorylation in Rat-1/hIR cells, various concentrations of insulin for 5 min, western blot, four-parameter logistic fit of 86.4 nM.
